The text below walks through data of article doi:10.1101/2023.06.06.543969.

Where only a bound is given, the exact number is not on record here.

Common to all, as to experiment: BLI
For orientation: In BLI a coated tip is dipped into the sample, and binding shifts an interference pattern.

Experiment [1] deals with His-tagged HIV Env MPER peptide.
Experiment [2] concerns the target biotinylated SARS-CoV-2 fusion peptide.
For another experiment, the target named is SARS-CoV-2 spike.
Experiment [3] deals with HCV E2 envelope glycoprotein.
In experiment [4] the target is HC84.26.5D Fab VH G50R (human).

In the case of 4E10 Fab (WT) VH:G50R, the ratio to parent in experiment [1] was more than 100. COV44–62 Fab (WT) VH:R50W: in experiment [2], the ratio to parent was more than 100.

Turning to COVOX-316 VH:W50R, the ratio to parent with SARS-CoV-2 spike is more than 100.

Take HC33.8 VH:S52Y: the ratio to parent in experiment [3] is more than 100.

Consider HCV1 VH:W52S, for which the ratio to parent in experiment [3] was more than 100. Substance “HCV (isolate H77) E2 domain (domain or fragment)” had a fold change in KD against the wild type in experiment [4] of 6 fold.

For P008_60 VH:S52R, the ratio to parent with SARS-CoV-2 spike was more than 100.
